T1: human FcγRIIa-H131 (human, UniProt P12318 34-217, limits assumed)
T1 construct: also called hCD32a/FcγRIIa-H131
T1 sequence (looked up): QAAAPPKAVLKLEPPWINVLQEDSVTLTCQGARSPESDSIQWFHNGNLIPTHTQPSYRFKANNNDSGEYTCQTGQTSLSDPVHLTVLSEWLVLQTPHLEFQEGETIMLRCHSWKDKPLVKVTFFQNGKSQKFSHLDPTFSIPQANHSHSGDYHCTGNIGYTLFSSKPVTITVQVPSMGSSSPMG


Key:
[1] = molecular target: human FcγRIIa-R131 (human) (UniProt P12318); assay: Fc variant affinity for Fcγ receptor; method not stated
[2] = molecular target: human FcγRIIa-H131 (human) (UniProt P12318); assay: as above
[3] = molecular target: human FcγRIIb (human) (UniProt P31994); assay: as above
[4] = molecular target: T1, human FcγRIIa-H131; assay: BLI (FORTEBIO Octet), %Rmax; supernatant 12D6-24-V9-DT-sup; receptor hCD32a/FcγRIIa-H131
[5] = molecular target: T1, human FcγRIIa-H131; assay: BLI (FORTEBIO Octet), %Rmax; supernatant 5F11-45-V9-DT-sup; receptor hCD32a/FcγRIIa-H131

Chain of human FcγRIIb (human) (P31994 43-217 limits assumed): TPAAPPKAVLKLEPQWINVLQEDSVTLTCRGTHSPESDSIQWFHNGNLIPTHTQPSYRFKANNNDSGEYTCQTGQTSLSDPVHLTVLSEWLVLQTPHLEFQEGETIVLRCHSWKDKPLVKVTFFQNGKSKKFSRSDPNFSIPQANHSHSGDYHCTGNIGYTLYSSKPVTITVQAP

Molecule	Kd [1] [nM]	Kd [2] [nM]	Kd [3] [nM]	also measured
Fc sequence variant IgG1f (antibody with human IgG1f constant domain)	850	530	3900	
Fc sequence variant P238D (antibody)			950	
12D6-24-V9-DT-sup (antibody, Tested as a supernatant of antibody producing cells; also called 12D6-24 V9 D270T; copies: 2 + 2) heavy: QVQLVQSGAEVKKPGASVKVSCKASGYTFTGYNMNWVRQAPGQGLEWMGNIDPYYGNTNYNQKFKGRVTMTTDTSTSTAYMELRSLRSDDTAVYYCARLGLQLYALDYWGQGTTVTVSSASTKGPSVFPLAPSSKSTSGGTAALGCLVKDYFPEPVTVSWNSGALTSGVHTFPAVLQSSGLYSLSSVVTVPSSSLGTQTYICNVNHKPSNTKVDKRVEPKSCDKTHTCPPCPAPELLGDDSVFLFPPKPKDTLMISRTPEVTCVVVDVSHETGEVKFNWYVDGVEVHNAKTKPREEQYNSTYRVVSVLTVLHQDWLNGKEYKCKVSNKALPRPIEKTISKAKGQPREPQVYTLPPSREEMTKNQVSLTCLVKGFYPSDIAVEWESNGQPENNYKTTPPVLDSDGSFFLYSKLTVDKSRWQQGNVFSCSVMHEALHNHYTQKSLSLSPG light: DIVMTQTPLSLPVTPGEPASISCRSSQSLVHSNANTYLHWYLQKPGQSPQLLIYKLTNRFFGVPDRFSGSGSGTDFTLKISRVEAEDVGVYYCSQSIHVPWTFGGGTKVEIKRTVAAPSVFIFPPSDEQLKSGTASVVCLLNNFYPREAKVQWKVDNALQSGNSQESVTEQDSKDSTYSLSSTLTLSKADYEKHKVYACEVTHQGLSSPVTKSFNRGEC				binding result [4]: no binding (tested: 10 µM)
5F11-45-V9-DT-sup (antibody, human IgG1, kappa, Tested as a supernatant of antibody producing cells; also called 5F11-45 V9 D270T) heavy chain: QVQLVQSGAEVKKPGSSVKVSCKASGYTFTDLSMHWVRQAPGQGLEWMGYITPSSGYTAYNQKFKGKTTLTADKSTSTAYMELSSLRSEDTAVYYCARLILQRGAYWGQGTLVTVSSASTKGPSVFPLAPSSKSTSGGTAALGCLVKDYFPEPVTVSWNSGALTSGVHTFPAVLQSSGLYSLSSVVTVPSSSLGTQTYICNVNHKPSNTKVDKRVEPKSCDKTHTCPPCPAPELLGDDSVFLFPPKPKDTLMISRTPEVTCVVVDVSHETGEVKFNWYVDGVEVHNAKTKPREEQYNSTYRVVSVLTVLHQDWLNGKEYKCKVSNKALPRPIEKTISKAKGQPREPQVYTLPPSREEMTKNQVSLTCLVKGFYPSDIAVEWESNGQPENNYKTTPPVLDSDGSFFLYSKLTVDKSRWQQGNVFSCSVMHEALHNHYTQKSLSLSPG light chain: DIVLTQSPDSLAVSLGERATINCRASKNVDSYGNSFMHWYQQKPGQPPKLLIYRASNLESGVPDRFSGSGSGTDFTLTISSLQAEDVAVYYCQQSNEDPLTFGQGTKLEIKRTVAAPSVFIFPPSDEQLKSGTASVVCLLNNFYPREAKVQWKVDNALQSGNSQESVTEQDSKDSTYSLSSTLTLSKADYEKHKVYACEVTHQGLSSPVTKSFNRGEC				binding result [5]: no binding (tested: 10 µM)

Now from value to molecule, other results behind:

Kd [1] [nM]	Kd [2] [nM]	Kd [3] [nM]	Molecule	also measured
22	520	98	Fc sequence variant SE (antibody)	
2			Fc sequence variant SELF (antibody)	
